From patent US20140087995A1 (published 2014)
Numbered stars: 1 amine (or outer) side, 2 acyl side, 3 side chain; on linkers, the order of the positions; unused ones are H or OH. Bridge positions count the residues as written; N and C are the ends. Side chains are listed from the residue outwards. Ends that are not written are not given here. * marks the point of attachment. C20 diacid = O=C(O)CCCCCCCCCCCCCCCCCCC(=O)*; γGlu = O=C(O)[C@H](CCC(=O)[*:2])N[*:1]; AEEA = NCCOCCOCC(=O)O

T1: human amylin receptor (human calcitonin receptor co-expressed with RAMP-3; amylin 3(a) receptor) (human, UniProt P30988 25-474; O60896 24-148, limits assumed)
T1 construct: whole, on cells; Used as cell membranes prepared from Amylin 3(a)/CRE-luc BHK cells (Assay V), not as intact cells; also called hAmylin-R; hAmylinR
T1 sequence (looked up) 1: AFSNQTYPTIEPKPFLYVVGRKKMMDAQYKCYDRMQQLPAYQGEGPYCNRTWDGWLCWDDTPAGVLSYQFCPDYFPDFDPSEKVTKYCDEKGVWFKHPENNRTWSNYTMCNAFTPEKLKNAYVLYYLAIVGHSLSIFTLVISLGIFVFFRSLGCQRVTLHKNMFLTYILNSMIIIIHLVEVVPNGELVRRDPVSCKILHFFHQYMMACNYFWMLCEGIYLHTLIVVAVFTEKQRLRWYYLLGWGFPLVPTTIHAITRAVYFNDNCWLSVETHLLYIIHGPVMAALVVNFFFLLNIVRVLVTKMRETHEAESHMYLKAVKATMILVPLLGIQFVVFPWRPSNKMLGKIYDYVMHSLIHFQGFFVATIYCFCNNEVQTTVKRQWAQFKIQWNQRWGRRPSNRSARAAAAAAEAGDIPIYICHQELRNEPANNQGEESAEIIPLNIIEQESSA
T1 sequence (looked up) 2: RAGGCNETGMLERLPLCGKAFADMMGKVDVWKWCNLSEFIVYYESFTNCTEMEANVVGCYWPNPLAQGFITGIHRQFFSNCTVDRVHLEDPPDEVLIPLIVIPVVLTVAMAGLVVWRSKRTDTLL

T2: human calcitonin receptor (human, UniProt P30988 25-474)
T2 construct: whole, on cells; Used as cell membranes prepared from the transfected BHK cells (Assay VII), not as intact cells; also called hCTR; hCT
T2 sequence (looked up): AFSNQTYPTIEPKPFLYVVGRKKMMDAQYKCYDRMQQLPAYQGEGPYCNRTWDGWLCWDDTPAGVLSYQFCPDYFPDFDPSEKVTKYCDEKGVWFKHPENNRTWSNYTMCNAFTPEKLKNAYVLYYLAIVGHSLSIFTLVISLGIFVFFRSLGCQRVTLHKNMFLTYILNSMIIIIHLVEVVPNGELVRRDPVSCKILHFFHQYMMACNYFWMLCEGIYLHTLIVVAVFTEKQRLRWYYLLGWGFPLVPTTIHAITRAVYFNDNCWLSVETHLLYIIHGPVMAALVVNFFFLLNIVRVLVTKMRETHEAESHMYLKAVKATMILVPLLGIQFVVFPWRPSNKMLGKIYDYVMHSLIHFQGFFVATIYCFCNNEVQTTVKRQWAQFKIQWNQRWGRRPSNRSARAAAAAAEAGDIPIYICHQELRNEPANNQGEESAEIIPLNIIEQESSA

B1: N^ε1-[2-[2-[2-[[(4S)-4-carboxy-4-(19-carboxynonadecanoylamino)butanoyl]amino]ethoxy]ethoxy]acetyl]-[Arg14,Arg17,Pro21,Pro27,Pro31]-h-amylin (peptide)
peptide: K([AEEA-γGlu-C20 diacid])CNTATCATQRLARFLRHSSPNFGAIPSSTPVGSNTY-NH2
modifications: disulfide 2-7; N-terminus assumed
SMILES: CC[C@H](C)[C@H](NC(=O)[C@H](C)NC(=O)CNC(=O)[C@H](Cc1ccccc1)NC(=O)[C@H](CC(N)=O)NC(=O)[C@@H]1CCCN1C(=O)[C@H](CO)NC(=O)[C@H](CO)NC(=O)[C@H](Cc1c[nH]cn1)NC(=O)[C@H](CCCNC(=N)N)NC(=O)[C@H](CC(C)C)NC(=O)[C@H](Cc1ccccc1)NC(=O)[C@H](CCCNC(=N)N)NC(=O)[C@H](C)NC(=O)[C@H](CC(C)C)NC(=O)[C@H](CCCNC(=N)N)NC(=O)[C@H](CCC(N)=O)NC(=O)[C@@H](NC(=O)[C@H](C)NC(=O)[C@@H]1CSSC[C@H](NC(=O)[C@@H](N)CCCCNC(=O)COCCOCCNC(=O)CC[C@H](NC(=O)CCCCCCCCCCCCCCCCCCC(=O)O)C(=O)O)C(=O)N[C@@H](CC(N)=O)C(=O)N[C@@H]([C@@H](C)O)C(=O)N[C@@H](C)C(=O)N[C@@H]([C@@H](C)O)C(=O)N1)[C@@H](C)O)C(=O)N1CCC[C@H]1C(=O)N[C@@H](CO)C(=O)N[C@@H](CO)C(=O)N[C@H](C(=O)N1CCC[C@H]1C(=O)N[C@H](C(=O)NCC(=O)N[C@@H](CO)C(=O)N[C@@H](CC(N)=O)C(=O)N[C@H](C(=O)N[C@@H](Cc1ccc(O)cc1)C(N)=O)[C@@H](C)O)C(C)C)[C@@H](C)O
notes: also called compound 64
B2: N^ε1-[2-[2-[2-[[(4S)-4-carboxy-4-(19-carboxynonadecanoylamino)butanoyl]amino]ethoxy]ethoxy]acetyl]-[Arg17,Pro21,Pro27,Pro29,Pro34]-h-amylin (peptide)
peptide: K([AEEA-γGlu-C20 diacid])CNTATCATQRLANFLRHSSPNFGAIPSPTNVGPNTY-NH2
modifications: disulfide 2-7; N-terminus assumed
SMILES: CC[C@H](C)[C@H](NC(=O)[C@H](C)NC(=O)CNC(=O)[C@H](Cc1ccccc1)NC(=O)[C@H](CC(N)=O)NC(=O)[C@@H]1CCCN1C(=O)[C@H](CO)NC(=O)[C@H](CO)NC(=O)[C@H](Cc1c[nH]cn1)NC(=O)[C@H](CCCNC(=N)N)NC(=O)[C@H](CC(C)C)NC(=O)[C@H](Cc1ccccc1)NC(=O)[C@H](CC(N)=O)NC(=O)[C@H](C)NC(=O)[C@H](CC(C)C)NC(=O)[C@H](CCCNC(=N)N)NC(=O)[C@H](CCC(N)=O)NC(=O)[C@@H](NC(=O)[C@H](C)NC(=O)[C@@H]1CSSC[C@H](NC(=O)[C@@H](N)CCCCNC(=O)COCCOCCNC(=O)CC[C@H](NC(=O)CCCCCCCCCCCCCCCCCCC(=O)O)C(=O)O)C(=O)N[C@@H](CC(N)=O)C(=O)N[C@@H]([C@@H](C)O)C(=O)N[C@@H](C)C(=O)N[C@@H]([C@@H](C)O)C(=O)N1)[C@@H](C)O)C(=O)N1CCC[C@H]1C(=O)N[C@@H](CO)C(=O)N1CCC[C@H]1C(=O)N[C@H](C(=O)N[C@@H](CC(N)=O)C(=O)N[C@H](C(=O)NCC(=O)N1CCC[C@H]1C(=O)N[C@@H](CC(N)=O)C(=O)N[C@H](C(=O)N[C@@H](Cc1ccc(O)cc1)C(N)=O)[C@@H](C)O)C(C)C)[C@@H](C)O
notes: also called compound 56
B3: N^ε1-[2-[2-[2-[[(4S)-4-carboxy-4-(19-carboxynonadecanoylamino)butanoyl]amino]ethoxy]ethoxy]acetyl]-[Arg17,Pro21,Pro27,Pro29,Pro31]-h-amylin (peptide)
peptide: K([AEEA-γGlu-C20 diacid])CNTATCATQRLANFLRHSSPNFGAIPSPTPVGSNTY-NH2
modifications: disulfide 2-7; N-terminus assumed
SMILES: CC[C@H](C)[C@H](NC(=O)[C@H](C)NC(=O)CNC(=O)[C@H](Cc1ccccc1)NC(=O)[C@H](CC(N)=O)NC(=O)[C@@H]1CCCN1C(=O)[C@H](CO)NC(=O)[C@H](CO)NC(=O)[C@H](Cc1c[nH]cn1)NC(=O)[C@H](CCCNC(=N)N)NC(=O)[C@H](CC(C)C)NC(=O)[C@H](Cc1ccccc1)NC(=O)[C@H](CC(N)=O)NC(=O)[C@H](C)NC(=O)[C@H](CC(C)C)NC(=O)[C@H](CCCNC(=N)N)NC(=O)[C@H](CCC(N)=O)NC(=O)[C@@H](NC(=O)[C@H](C)NC(=O)[C@@H]1CSSC[C@H](NC(=O)[C@@H](N)CCCCNC(=O)COCCOCCNC(=O)CC[C@H](NC(=O)CCCCCCCCCCCCCCCCCCC(=O)O)C(=O)O)C(=O)N[C@@H](CC(N)=O)C(=O)N[C@@H]([C@@H](C)O)C(=O)N[C@@H](C)C(=O)N[C@@H]([C@@H](C)O)C(=O)N1)[C@@H](C)O)C(=O)N1CCC[C@H]1C(=O)N[C@@H](CO)C(=O)N1CCC[C@H]1C(=O)N[C@H](C(=O)N1CCC[C@H]1C(=O)N[C@H](C(=O)NCC(=O)N[C@@H](CO)C(=O)N[C@@H](CC(N)=O)C(=O)N[C@H](C(=O)N[C@@H](Cc1ccc(O)cc1)C(N)=O)[C@@H](C)O)C(C)C)[C@@H](C)O
notes: also called compound 54
B4: N^ε1-[2-[2-[2-[[(4S)-4-carboxy-4-(19-carboxynonadecanoylamino)butanoyl]amino]ethoxy]ethoxy]acetyl]-[Arg17,Pro21,Pro27,Pro28,Pro34]-h-amylin (peptide)
peptide: K([AEEA-γGlu-C20 diacid])CNTATCATQRLANFLRHSSPNFGAIPPSTNVGPNTY-NH2
modifications: disulfide 2-7; N-terminus assumed
SMILES: CC[C@H](C)[C@H](NC(=O)[C@H](C)NC(=O)CNC(=O)[C@H](Cc1ccccc1)NC(=O)[C@H](CC(N)=O)NC(=O)[C@@H]1CCCN1C(=O)[C@H](CO)NC(=O)[C@H](CO)NC(=O)[C@H](Cc1c[nH]cn1)NC(=O)[C@H](CCCNC(=N)N)NC(=O)[C@H](CC(C)C)NC(=O)[C@H](Cc1ccccc1)NC(=O)[C@H](CC(N)=O)NC(=O)[C@H](C)NC(=O)[C@H](CC(C)C)NC(=O)[C@H](CCCNC(=N)N)NC(=O)[C@H](CCC(N)=O)NC(=O)[C@@H](NC(=O)[C@H](C)NC(=O)[C@@H]1CSSC[C@H](NC(=O)[C@@H](N)CCCCNC(=O)COCCOCCNC(=O)CC[C@H](NC(=O)CCCCCCCCCCCCCCCCCCC(=O)O)C(=O)O)C(=O)N[C@@H](CC(N)=O)C(=O)N[C@@H]([C@@H](C)O)C(=O)N[C@@H](C)C(=O)N[C@@H]([C@@H](C)O)C(=O)N1)[C@@H](C)O)C(=O)N1CCC[C@H]1C(=O)N1CCC[C@H]1C(=O)N[C@@H](CO)C(=O)N[C@H](C(=O)N[C@@H](CC(N)=O)C(=O)N[C@H](C(=O)NCC(=O)N1CCC[C@H]1C(=O)N[C@@H](CC(N)=O)C(=O)N[C@H](C(=O)N[C@@H](Cc1ccc(O)cc1)C(N)=O)[C@@H](C)O)C(C)C)[C@@H](C)O
notes: also called compound 55

Legend:
[1] = target: T1, human amylin receptor (human calcitonin …); assay: ratio of hCTR binding IC50 to hAmylin-R binding IC50 (reference: human calcitonin receptor)
Method: The resulting pellet was resuspended, homogenized and centrifuged (20.000 rpm, 15 min) in a buffer containing 20 mM Na-HEPES and 0.1 mM EDTA (pH 7.4, buffer 2). The resulting pellet was resuspended in buffer 2 and protein concentration was measured (BCA protein Assay, Pierce). The homogenate was kept cold during the whole procedure. The membranes were kept at −80° C. until use. The assay was performed in a 384 well Optiplate (PerkinElmer) in a total volume of 40 ul. Membranes were mixed with SPA beads. Final concentration of membranes 35 ng/μL final and SPA beads was 0.05 mg/well. Test-compounds were dissolved in DMSO and further diluted in assay buffer (50 mM Hepes, pH 7.4, 1 mM CaCl2, 5 mM MgCl₂, 0.1% OA and 0.02% Tween20). […] The final mixture was incubated with shaking at 400 rpm for 120 min at 25° C. prior to centrifugation (1500 rpm, 10 min). Samples were analyzed on TopCounter™ (Packard). The IC₅₀ was calculated using (one site binding competition analysis) GraphPad Prism5 as a measure of receptor affinity.
Membranes were prepared in the following way; the cells were rinsed with PBS and incubated with Versene for approximately 5 min before harvesting. The cells were flushed with PBS and the cell-suspension was centrifuged for 5 min at 1000 rpm. Cells were homogenized (Ultrathurrax) in a buffer containing 20 mM Na-HEPES and 10 mM EDTA (pH 7.4) and centrifuged at 20.000 rpm for 15 min. The resulting pellet was resuspended, homogenized and centrifuged (20.000 rpm, 15 min) in a buffer containing 20 mM Na-HEPES and 0.1 mM EDTA (pH 7.4, buffer 2). The resulting pellet was resuspended in buffer 2 and protein concentration was measured (BCA protein Assay, Pierce). The homogenate was kept cold during the whole procedure. The membranes were kept at −80° C. until use. Assay was performed in a 384 well Optiplate (PerkinElmer) in a total volume of 40 ul. Membranes were mixed with SPA beads.

[2] = target: T2, human calcitonin receptor; assay: SPA competition against 125I-calcitonin, membranes with human calcitonin receptor (Assay VII)
Outline: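 BHK hCTR membranes 35 ng/μL + SPA beads 0.05 mg/well; buffer 50 mM Hepes pH 7.4, 1 mM CaCl2, 5 mM MgCl₂, 0.1% OA, 0.02% Tween20. 120 min, 25° C., shaking. Scintillation count; IC50 by one-site binding competition.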

Binder	Ratio hCT/hAmylin binding [1]	IC50 [2] [nM]
B1	126	56
B2	42.6	2.09
K([AEEA-γGlu-C20 diacid])CNTATCATQRLANFLRHSSPNFGAIPPSTPVGSNTY-NH2 (disulfide 2-7, also called compound 53)	104	5.38
B3	146	4.38
B4	51.8	2.17
